Here are results for 1 protein from PMC4538832, “Structures of the T. brucei kRNA editing factor MRB1590 reveal unique RNA-binding pore motif contained within an ABC-ATPase fold” (Nucleic Acids Research, 2015).

Usually stoichiometry N stands for the number of molecules, sites or subunits per partner or assembly.

The data set deals with the molecule itself. Put plainly: SEC; Superdex 200; 5 mg/ml protein; 20 mM Tris-HCl pH 7.5, 300 mM NaCl, 5% glycerol; elution volume compared with standard proteins. For orientation: SEC sorts molecules by how far they enter the pores of the column.

B1: MRB1590(10–668) (domain or fragment, T. brucei, UniProt Q57ZF2 10-668, looked up)
chain: YRGGRGGGRGHSHWHNNAPMERGGHMPSNNEGAAISSGSTGFSPLMDFFHSVEGRNYGELRSLTNETYQISENVRCTFLSIQSDPFAPGSQVRLVCPCTFSLEKVLQTTDLAAANPCRRVAAEDFILRSFHAGYRNGIPRRTSGAVQVLRPSQHVLERSTVGLVKAHQQKSGMQAEIEIFARVKLPGHGRRIDGHGAIDIFYNELVPLLEQCVVGLNEEDLHQHVICVHDQEVLRSNLLGAGYVAFVANGAILPRDAGNSDKPLRDNAVPFQSPKSLECSFTLPHSGKTITGMGLPPGLTLIAGGGFHGKSTLLRALEVGIYNHVPDDGRTYVVVDPTAVKIRAEDRRSVHGVDISPFINNLPFGKTTNFFVTADASGSTSQAANIMEALELGSQLLLLDEDTCATNLMYRDALMQMLVPRAQEPITPFVERVADLSQNHGVSSIMVIGGSGQYFPQARVVLVMNAYQISDCTKEAKEIASNSSLPALNPPGDTASVFIPDVNRCFDPDGSFTTVRRRRGREGTKVSGIGTESIRFSEETIDLSMVEQIVEEGQVNAIAQCLALLYDGEPRIVPEMTTKGGALTQLPSPGGVCEIQRGKFNSNFSSMIAGCCSHQHDKRLELRTPSCYLPRGFTSATRHIEIGAALNRLRTLRTVTAKR
notes: MRB1590, Trypanosoma brucei, residues 10-668 (N-terminal truncation of the full length protein); also called MRB1590–AMP–PNP complex; MRB1590-ADP, crystal form 2 (with poly-U); source: E. coli C41(DE3), purified (nickel-nitrilotriacetic acid column)
As for B1, the “stoichiometry N” value amounted to 2.
